The source of these data is publication PMC5466808.

The stoichiometry N is a count of units in the complex or per binding partner.

Several values for one entry are separate records, joined by “and”; a condition that tells them apart may be missing. Identical values can stand only once. Like-named read-outs stand apart in the source and are kept apart here.

For experiment [1], the target named is full length human G208C NFU1 (human) (UniProt Q9UMS0). The experiment is described as follows: AUC.
The target is the same in experiment [2]. The experiment is described as follows: AUC. This is another data set of the same source.

On to “full length human G208C NFU1 (from UniProt Q9UMS0 10-254) (natural protein)”, for which, in experiment [1], the percent dimer (holo protein) was determined as 65.6%; the stoichiometry N was 2 and 4. In experiment [2], this substance came in with a percent dimer (with 1 mM TCEP) of 60%, a percent dimer (without TCEP) of 58%, a percent higher order oligomer (with 1 mM TCEP) of 1.5% and a percent higher order oligomer (without TCEP) of 6%. Besides, in experiment [2], the percent monomer (with 1 mM TCEP) was determined as 30%, the percent monomer (without TCEP) was 29% and the stoichiometry N was 2.
